According to patent publication US8652467B2, “Dek protein compositions and methods of using the same” (The Regents of the University of Michigan, priority 2005, dated 2014):
“Also recorded” adds a separate entry of the source.

Tests used:
[1] = test system: circular SV-40 DNA; assay: Topology assay with His-DEK and GST-ALY; format: biochemical; details: in the presence of 1 U topoisomerase I
Protocol: 10 ng (0.003 pmol) of circular SV-40 DNA was incubated with 2, 4 or 8 pmol of HIS-DEK (DEK) or GST-ALY (ALY) or either 2 or 4 pmol HIS-DEK and 2, 4 or 8 pmol GST-ALY in the presence of 1 U topoisomerase I. As a control for the functionality of topoisomerase I, SV-40 DNA was incubated either with or without topo I in the absence of GST-ALY and DEK. After 1 h at 37° C., the samples were treated with Proteinase K, and the DNA was purified and analyzed by agarose gel electrophoresis (0.8% at 2V/cm) and SybrGold staining.

[2] = test system: monocyte-depleted peripheral white blood cells; assay: In vitro migration assay with monocyte-depleted peripheral white blood cells; format: cell-based, human
Protocol: (A). […] Day 12 MDM grown in 10% serum were maintained for 12 h in serum-free conditioned media alone or with 10 ng/ml of recombinant IL-8. Supernatants were harvested, and secreted DEK detected in the supernatant by Western blot using DEK-specific monoclonal antibody. (B). DEK is a chemoattractant. Monocyte-depleted peripheral white blood cells were prepared. 1×10^5 cells in 100 μl RPMI were placed in the upper chambers of a 24-well chemotaxis microchamber plate with pore size of 3 μM. Lower chambers contained RPMI medium with various concentrations of recombinant DEK (made in baculovirus), recombinant GLI-2 control protein (also made in baculovirus), or no protein control (C′). After 1 h, the number of fluorescently labeled migrating cells in the lower chamber was determined at 485 nM/535 nm wavelengths by Tecan GENios (Phenix, Austria). The results are expressed as the average fold increase of the number of cells migrating toward DEK or GLI-2 compared to control wells containing medium only. Data shown using 34 nM and 68 nM DEK are the average of three different donors, while data using 136 nM DEK are the average of six different donors. […] (C). […] Fluorescence profiles were recorded by FACS analysis. The results are expressed as the average fold increase of the percentage of cells migrating toward DEK vs. control wells containing medium only. […]

[3] = test system: neutrophils; assay: Neutrophil migration into the peritoneum after intraperitoneal injection; format: in vivo, C57BL6 mice; details: 50 μg intraperitoneal, 8 h following injection, vs GLI-2 and PBS controls
Protocol: (A). Purified neutrophils were placed in the upper chambers of a 24-well chemotaxis microchamber plate with pore size of 3 μM or 5 μM. Lower chambers contained RPMI medium with various concentrations of recombinant DEK, as indicated. The bar labeled “control” contained only media in the lower chamber. The bar labeled “DEK up” had DEK in the upper chamber and media in the lower chamber. […] (B). Groups of mice received intraperitoneal injections of either PBS or 50 μg of either LPS, recombinant DEK, or a recombinant protein control prepared in parallel to DEK in baculovirus (an isoform of human GLI-2). Twenty mice were tested in each of the four groups. Half of the mice in each group were sacrificed after 4 hours (white bars), and the other half at 8 hours (black bars) after intraperitoneal injection, and then subjected to peritoneal lavage. The bars represent the average number of neutrophils migrating into the peritoneum of each group of mice.
In order to confirm that DEK is a chemoattractant, an in vivo murine model was used. Four groups of twenty 4-6 week old male C57BL6 mice were injected intraperitoneally with 50 μg of DEK, 50 μg of a recombinant control protein also prepared in baculovirus (GLI-2) (See, e.g., Smith et al., J Virol 75, 2301-13 (2001)), 50 μg of LPS, or PBS alone.

[4] = test system: Human Microvascular Endothelial Cells (HMVEC); assay: HMVEC chemotaxis (cell migration assay); format: cell-based; details: 3.5 μg purified recombinant DEK vs purification buffer control
Protocol: Cell migration assay (See, e.g., Koch et al., Arthritis & Rheumatism 44: 31-40, (2001)) was performed with either 3.5 μg of purified, recombinant DEK diluted in PBS, or with just the purification buffer diluted in PBS (control). Nine high-power fields were assayed per sample, and results expressed as the number of cells migrating per well. Error bars show the mean deviation of two separate experiments (*p=0.0249).

[5] = test system: MDM and HeLa cells; assay: Uptake of recombinant DEK by cells; format: cell-based, human; details: MDM (12-day) and HeLa cells

B1: DEK: full-length recombinant DEK protein produced in baculovirus (protein, UniProt P35659 1-375, looked up)
chain: MSASAPAAEGEGTPTQPASEKEPEMPGPREESEEEEDEDDEEEEEEEKEKSLIVEGKREKKKVERLTMQVSSLQREPFTIAQGKGQKLCEIERIHFFLSKKKTDELRNLHKLLYNRPGTVSSLKKNVGQFSGFPFEKGSVQYKKKEEMLKKFRNAMLKSICEVLDLERSGVNSELVKRILNFLMHPKPSGKPLPKSKKTCSKGSKKERNSSGMARKAKRTKCPEILSDESSSDEDEKKNKEESSDDEDKESEEEPPKKTAKREKPKQKATSKSKKSVKSANVKKADSSTTKKNQNSSKKESESEDSSDDEPLIKKLKKPPTDEELKETIKKLLASANLEEVTMKQICKKVYENYPTYDLTERKDFIKTTVKELIS
modifications: full-length
notes: full-length recombinant DEK protein produced in baculovirus
induction of DNA supercoiling [1]: induced supercoiling | migration of CD8+ cells and CD56+ cells towards DEK ([2]; 79 nM DEK, 1 hour, FACS analysis, vs medium only): statistically significant | migration of white blood cells toward DEK ([2]; 34, 68, 136 nM DEK in lower chamber, 1 h, vs GLI-2 control protein or media alone): statistically significant; also recorded: increase in a dose-dependent fashion | neutrophil migration into the peritoneum [3]: significantly increased the infiltration of neutrophils; also recorded: significantly induces neutrophil migration | endothelial cell chemotaxis [4]: does attract endothelial cells | uptake by cells [5]: can be taken up
